According to patent publication US20250388688A1 (ETHYREAL BIO, published 2025):
Positions count from the first letter of the chain named.

B1: parental TSHR-binding antibody (antibody, V domains shown)
VH: EVQLVQSGAEVKKPGQSLKISCKASGYSLTDNWIGWVRQKPGKGLEWMGIIYPGDSDTRYSPSFQGQVTISADKSINTAYLQWSSLKASDTAIYYCVGLDWNYNPLRYWGPGTLVTVSS
VL: QSVLTQPPSVSAAPGQKVTISCSGSSSDIGSNYVSWYQQFPGTAPKLLIYDNNKRPSAIPDRFSGSKSGTSATLGITGLQTGDEADYYCGTWDSRLGIAVFGGGTQLTVL
notes: it has a human Fc (captured on anti-human Fc, detected with anti-human IgG Fc); also called parental antibody; parental anti-TSHR antibody
B2: TSHB-24 (antibody, V domains shown)
VH: B1 VH with Q16E, N77S, P111Q
VL: B1 VL with A12G, K17R, F40L, A58G, I59V, T73S, G75A, T81A, G82E, Q106K
B3: TSHB-12 (antibody, V domains shown)
VH: EVQLVQSGAEVKKPGASVKVSCKASGYSLTDNWIGWVRQAPGQGLEWMGIIYPGDSDTRYAQKFQGRVTMTADKSTSTVYMELSSLRSEDTAVYYCVGLDWNYNPLRYWGQGTLVTVSS
VL: B1 VL
B4: TSHB-22 (antibody, V domains shown)
VH: B1 VH
VL: B1 VL with A12G, K17R, F40L, A58G, I59V, T73S, G75A, T81A, G82E, Q106K
B5: TSHB-19 (antibody, V domains shown)
VH: B1 VH
VL: B1 VL with Y33W, F40L, A58G
B6: TSHB-11 (antibody, V domains shown)
VH: B1 VH with Q16E, N77S, L99T, P111Q
VL: B1 VL
B7: TSHB-14 (antibody, V domains shown)
VH: B1 VH
VL: B1 VL with F40L, A58G, L96W
B8: TSHB-20 (antibody, V domains shown)
VH: B1 VH
VL: B1 VL with D28N, F40L, A58G
B9: TSHB-1 (antibody, V domains shown)
VH: B1 VH with Q16E, N77S, P111Q
VL: B1 VL
B10: TSHB-5 (antibody, V domains shown)
VH: B1 VH with Q16E, S28Q, N77S, P111Q
VL: B1 VL
B11: TSHB-13 (antibody, V domains shown)
VH: B1 VH
VL: B1 VL with F40L, A58G
B12: TSHB-3 (antibody, V domains shown)
VH: B1 VH with Q16E, N77S, D100E, P111Q
VL: B1 VL

Columns and labels:
[1] = molecular target: T1, soluble TSHR protein (ELISA coat) (human, UniProt P16473 22-260, limits assumed); test: ELISA, plate coated with soluble TSHR, antibody at 100 nM, anti-human IgG Fc-HRP (blank 0.052)
[2] = molecular target: T1, soluble TSHR protein (ELISA coat); test: ELISA, plate coated with soluble TSHR, antibody at 300 nM, anti-human IgG Fc-HRP (blank 0.055)
[3] = molecular target: T1, soluble TSHR protein (ELISA coat); test: ELISA, plate coated with soluble TSHR, antibody at 33.3 nM, anti-human IgG Fc-HRP (blank 0.051)
[4] = molecular target: T1, soluble TSHR protein (ELISA coat); test: ELISA, plate coated with soluble TSHR, antibody at 300 nM, anti-human IgG Fc-HRP;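 note: TSHR coated at 2 µg/ml, bound antibody revealed by goat anti-human IgG Fc HRP, color developed with TMB and stopped with H2SO4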
Experimental: (§1) Select TSHR antibody variants were tested for their ability to bind TSHR in an ELISA. Briefly, soluble TSHR protein was coated onto a plate at 2 μg/ml in phosphate buffered saline (PBS). The plate was washed with PBS and blocked with 4% skim milk in PBS.
(§2) Following wash steps with 1×PBS-Tween 0.05%, bound human IgG was detected with peroxidase conjugated goat anti-human IgG (Fc specific)-HRP at 1:5000 dilution and the ELISA was developed with TMB reagent followed by H2SO4.

[5] = molecular target: T1, soluble TSHR protein (ELISA coat); test: ELISA, plate coated with soluble TSHR, antibody at 100 nM, anti-human IgG Fc-HRP;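 note: binding of antibody variants to soluble TSHR coated at 2 µg/ml, with colour developed using TMB substrate and stopped with H2SO4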
Experimental: as §1, §2

[6] = molecular target: T1, soluble TSHR protein (ELISA coat); test: ELISA, plate coated with soluble TSHR, antibody at 33.3 nM, anti-human IgG Fc-HRP;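 note: binding of antibody variants to plate-bound soluble TSHR (coated at 2 µg/ml), with bound human IgG detected by HRP conjugate and colour developed using TMB substrate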
Experimental: as §1, §2

[7] = molecular target: T2, Soluble TSHR (22-260) protein (human, UniProt P16473 22-260); test: SPR (Biacore T200, 25 C), antibody captured on anti-human Fc, soluble TSHR (22-260) as analyte, 1:1 fit;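 note: antibodies captured at 0.1 ug/mL on a CM5 sensor chip bearing anti-human Fc, with HBS-EP+ running buffer at pH 7.4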
T2 construct: range 22-260
Experimental: Measurements were taken on a Biacore T200 at 25 C using a CM5 chip coated with anti-human Fc. Test antibodies were captured at 0.1 ug/mL in HBS-EP+ (10 mM HEPES pH7.4, 150 mM NaCl, 3 mM EDTA, 0.05% Tween 20) assay buffer. […] A 1:1 binding kinetics fit was used to calculate kinetic parameters.

| Molecule | ELISA (OD 450) at 100 nM [1] [OD 450] | ELISA (OD 450) at 300 nM [2] [OD 450] | ELISA (OD 450) at 33.3 nM [3] [OD 450] | ELISA (OD 450) at 300 nM [4] [OD 450] | ELISA (OD 450) at 100 nM [5] [OD 450] | ELISA (OD 450) at 33.3 nM [6] [OD 450] | Kd [7] [nM] | koff [7] [s⁻¹] | kon [7] [M⁻¹ s⁻¹] |
| --- | --- | --- | --- | --- | --- | --- | --- | --- | --- |
| human IgG1 isotype control antibody | 0.057 | 0.055 | 0.063 | – | – | – | – | – | – |
| B1 | – | – | – | 0.461 | 0.43 | 0.406 | – | – | – |
| B2 | – | – | – | 0.54 | 0.49 | 0.425 | 2.7 | 0.000348 | 129000 |
| B3 | – | – | – | 0.52 | 0.475 | 0.402 | – | – | – |
| B4 | – | – | – | 0.53 | 0.493 | 0.447 | – | – | – |
| B5 | – | – | – | 0.547 | 0.47 | 0.405 | 3.12 | 0.000369 | 118000 |
| B6 | – | – | – | 0.289 | 0.22 | 0.159 | 53.3 | 0.000643 | 12100 |
| B7 | – | – | – | 0.572 | 0.522 | 0.477 | 2.52 | 0.000352 | 140000 |
| B8 | – | – | – | 0.54 | 0.465 | 0.411 | 2.77 | 0.000301 | 109000 |
| B9 | – | – | – | 0.641 | 0.506 | 0.442 | 1.7 | 0.000273 | 161000 |
| B10 | – | – | – | 0.578 | 0.498 | 0.414 | 2.82 | 0.00044 | 156000 |
| B11 | – | – | – | 0.561 | 0.495 | 0.459 | – | – | – |
| B12 | – | – | – | 0.467 | 0.407 | 0.351 | 3.01 | 0.000533 | 177000 |
